Test: yeast display, Sf9 membrane polyspecificity reagent, FACS + sequencing; frameworks hold sequencing errors
Procedure, shortened: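 A nanobody's polyreactivity label depends on the gate it was sorted from. Yeast display cells were stained with 10% biotinylated, detergent-solubilized Sf9 membrane reagent for 1 hour at 4 °C, enriched on streptavidin microbeads and sorted by FACS. The low and high (top ~1%) gates were set on anti-HA fluorescence for expression and streptavidin fluorescence for reagent binding.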

| Sequence | polyreactivity (PSR sort gate) |
| --- | --- |
| QVQLVESGGGLVQAGGSLRLSCAASGGIFTSYDMGWYRQAPAKEREFVAGISDSGGSTYYADSVKGRFTISRDNAKNTVYLQMNSLKPEDTAVYYFAADAWYVWEYWWQTEDDYWGQGTEVTVSS | high polyreactivity |
| QVQLVESGGGLVQAGGSLRLSCAASGGIFTYYAMGGYRQAPGKERELVAAITWSGGSTYYADSVKGRFTISRDNAKNTVYLQMNSLKPEETAVYYCNAVVLHVTTDNSTFTTDDYWGHGTQVTVSS | low polyreactivity |
| QVQLVESGGGLVQAGGSLRLSCAASGGIFVPYAMGWYRQAPGKERELVAGITSGGSTNYADSVKGRFTISRDNAKNTVYLQMNSLKPVDTAVYYCAARRRPGGRYKSRVWYDYWGQGTQVTVSS | high polyreactivity |
| QVQLVESGGGLVQAGGSLRLSCAASGGIFVRNAMLWYRQAPGKERELVAAISDTGGSTYYADSVKGRFTISRDNAKNTVYLQMNSLKPEDTAVYYCAADLSPEADDYDVGGWRFRYDYWGQGTQVTVSS | low polyreactivity |
| QVQLVESGGGLVQAGGSLRLSCAASGGIFVSYAMGWYRQAPGNERELVAAITSGGGTSYADSVKGRFTISRDNAKNTVYLQMNSLKPEDTAVYYCNADGYLAERFVIRLDEYRDYDYWGQGTQVTVSS | low polyreactivity |
| QVQLVESGGGLVQAGGSLRLSCAASGGIFVTYAMGWCRQAPGKERELVAAITSGDSTYYADSVKGRFTISRDNAKNPVYLQMNSLKPEDTAVYYCAVGSTDRVSAQGSYFTYDYWGQGTQVTVSS | low polyreactivity |
| QVQLVESGGGLVQAGGSLRLSCAASGGIFWFNAMGRYRQAPGKEREFVAAITWRGGSTYYADSVKGRFTISRDNAKNTVYLQMHSLKPEDTAVYYCAATYWWHRSSGWDRVEYWGQGTQVNVSS | high polyreactivity |
| QVQLVESGGGLVQAGGSLRLSCAASGGIFWTYAMGWYRQAPWKERELVATITSGGSTNYADSVKGRFTISRDNAKNTVYLQMNSLKPEDTAVYYCNADWWWGYGYWGQGTQVTVSS | low polyreactivity |
| QVQLVESGGGLVQAGGSLRLSCAASGGIFYDYAMGWYRQAPGKERELVAAISQSGGSTYYADSVKGRFTISRDNAKNTVYLQMNSLKPEDTAVYYCAADYLDSTYGYVYGWDDSWGQGTQVTVSS | low polyreactivity |
| QVQLVESGGGLVQAGGSLRLSCAASGGIFYGNVMGWYRHAPGKERELVADITSVGSTYYADSVKGRFTISRDNAKNTVYLQMNSLKPEDTAVYYCAAETYLVFSTWYGYDYCGQGTQVTVSS | low polyreactivity |
| QVQLVESGGGLVQAGGSLRLSCAASGGIFYGYALGWYRQAPGKERELVASITSDGSTYADSVKGRFTISRDNAKNTVYLQMNSLKPEDTAVYYCNKEILVIVTYDYWGQGTQVTVSS | low polyreactivity |
| QVQLVESGGGLVQAGGSLRLSCAASGGIFYGYAMGWYRQAPGKERELVAAISDSGGSTYYADSVKGRFTISRDNAKNTVYLQMNSLKPEDTAVYYCATDAPVGGYVSEGDYWGQGTQVTVSS | low polyreactivity |
| QVQLVESGGGLVQAGGSLRLSCAASGGIFYGYAMGWYRQAPGKERELVAAITTGGSTNYADSVKGRFTISRDNAKNTVYLQMNSLKPEDTAVYYCAAPVNRAQGPYARRVERYGYWGQGTQVTVSS | low polyreactivity |
| QVQLVESGGGLVQAGGSLRLSCAASGGIFYPYAMGWYRQAPGKERELVASIDVSDGSTYYADSVKGRFTISRDNAKNSVYLQMNSLKPEDTAVYYCAADRYSKAIDFEGDYWGQGTQVTVSS | low polyreactivity |
| QVQLVESGGGLVQAGGSLRLSCAASGGIISINAMGWYRQAPGKERELVAAISWGDGITYYADSVKGRFTTSRDNAKNTVYLLMTSLKPEDTAVYYCAKDIGTRLGPAGYDYWGQGTQVTVSS | low polyreactivity |
| QVQLVESGGGLVQAGGSLRLSCAASGGIISSYVMGWYRQAPGKERELVAAISRSGGSTYYADSVKGRFTISRDNAKNTVYLQMNSLKPEDTAVYFCAAVLQTRYNYWGQGTQVTVSS | high polyreactivity |
| QVQLVESGGGLVQAGGSLRLSCAASGGILNPNAMGWYRQAPGKERELVAAISNGGGTKYADSVKWRFTISRDNAKNTVYLQMNSLKPEDTAVYYCAARQWWSYDYWGKGTQVTVSS | high polyreactivity |
| QVQLVESGGGLVQAGGSLRLSCAASGGILPKYAMGWYRQAPGKERELVAAIDGGADSTYYADSVKGRFTISRDIAKNTVYLQLNSLKPEDTAVYFCGADGSLHAGHWRTYGYYYWGQGTQVTVSS | low polyreactivity |
| QVQLVESGGGLVQAGGSLRLSCAASGGILRQNTMGWYRQAPGKERELVAAISSSGGRTYYADSVKGRFTISRDNAKNTVYLQMNSLKPEDTAVYYCAAEVRLKYRGWTGDYWGQGTQVTVSS | high polyreactivity |
| QVQLVESGGGLVQAGGSLRLSCAASGGIPLYYVMGWYRQAPGKERELVADISGDDSTNYADSVKGRFTISRDNAKNTVYLQMNSLKPEDTAVYYCAADGWLWSFTGDGWWFDYWGQGTQVTVSS | low polyreactivity |
| QVQLVESGGGLVQAGGSLRLSCAASGGISYRYAMGWYRQAPGKERELVAAISGRGTSTYYADSVKGRFTISRDNAKNTVYLQMNSLKTEDTAVYYCNAQVGNFGYRSGGYDYWGQGTQVTVSS | high polyreactivity |
| QVQLVESGGGLVQAGGSLRLSCAASGGLFTAYTMGWYRQAPGKERELVAVISSGGGRTYYADSVKGRFTISRDNAKNSVYLQMNSRKPEDTAVYYCNARVYVSANKYDYWGQGTQVTVSS | high polyreactivity |

| Sequence | polyreactivity (PSR sort gate) |
| --- | --- |
| QVQLVESGGGLVQAGGSLRLSCAASGGNFAEYVMGWYRQAPGKERELVAAIDWSGGSTYYADSVKGRFTISRDNAKNTVYLQMNSLKPEDTAVYYCNADGPLDRYEYWGQGTQVTVSS | low polyreactivity |
| QVQLVESGGGLVQAGGSLRLSCAASGGNFWIYTMGWYTQAPGKERELVASITRGGSTYADSVKGRFTISRDKAKNTVYLQMNSLKPEDTAVYYCNAEFRYPWFRWEYDHWGQGTQVTVSS | low polyreactivity |
| QVQLVESGGGLVQAGGSLRLSCAASGGNFYLYAMGWYIQAPGKEREFVAAISSSGGSTNYADSVKGRFTFSRDNAKNTVYLQMNSLKAEDTAVYYCAARWLAFLDLGKTYEYWGQGTHVTVSS | high polyreactivity |
| QVQLVESGGGLVQAGGSLRLSCAASGGSSPNYAMGWYRQAPGKEREFVAGISRSGGSTYYADSVKGRFTISRDNAKNTVYLQMNSLKPEDTAVYVCAAARSRPYDYWGQGTQVTVSS | high polyreactivity |
| QVQLVESGGGLVQAGGSLRLSCAASGGTFAFYAMGWYRQAPGKERELVAAITSGGRTYYADSVKGRFTISRDNAKNTVYLQMKRLKPEDTAVYYCNADWVDHYYVGYDYWGQGTQVTVSS | low polyreactivity |
| QVQLVESGGGLVQAGGSLRLSCAASGGTFAGYAMGWYRQAPGKERELVAAISRSGGSTYYADSVKGRFTISRDNAKNTVYLQMNSLKPEDTAVYYCIAASRTKFDYWGQGTQVTVSS | high polyreactivity |
| QVQLVESGGGLVQAGGSLRLSCAASGGTFDSYAMGWYRQAHGKERELVAAITRRTSSTYYADSVKGRFTISRDNAKNTVYLQMHSLKPEDTAVYYCNADSYYYDHRDFGYWGQGTLVTVSS | high polyreactivity |
| QVQLVESGGGLVQAGGSLRLSCAASGGTFDYYAMGWYRQAPGKERELVAAISTSGGRTYYADSVKGRFTISRDNAKNTVYLQMNSLTPEDTAVYYCAALSRRAKYDSFYYWGQGTQVTVSS | high polyreactivity |
| QVQLVESGGGLVQAGGSLRLSCAASGGTFERNAMGWYIQAPGKERELVAGMSKISGRTYYADSVKGRFTISRDNAKNTVYLQMNCLKPEDTAVYYCNKVSRSSYGYWGQGTQVTVSS | high polyreactivity |
| QVQLVESGGGLVQAGGSLRLSCAASGGTFFQYAMGWYRQAPGKERELVAAITWSSGSTYYADSVKGRFTISRDNAKNTVYLQMNSLKPEDTAVYYDDYYTYGDYWGQGTQVTVSS | low polyreactivity |
| QVQLVESGGGLVQAGGSLRLSCAASGGTFFTNAMGWYRQAPGKERELVAAISRGGSSTYYADSVKGRFTISRDNAKNTVYLQMTSLKPEDTAVYYCNKAYHRRDSEFGYWGQGTQVTVSS | high polyreactivity |
| QVQLVESGGGLVQAGGSLRLSCAASGGTFGGNAMGWYRQAPGKERELVAAITDIGGSTYYADSVKGRFTISRDNAKNTVYLQMNSLKPEDTAVYYCAKDNVEVVGQWSSDEYDYWGQGTQVTVSS | low polyreactivity |
| QVQLVESGGGLVQAGGSLRLSCAASGGTFGKNAMGWYRQAPGKERELVAAITWSGARTFYADSVKGRFTISRDNAKNTVYLQMNSLKPEDTAVYYCAKGGTRFTRYEYWGQGTQVTVSS | high polyreactivity |
| QVQLVESGGGLVQAGGSLRLSCAASGGTFGKNAMGWYRQAPGKERELVAAITWSGARTFYADSVKGRFTISRDNAKNTVYLQMNSLKPEDTAVYYCGKGGTRFTRYEYWGQGTQVTVSS | high polyreactivity |
| QVQLVESGGGLVQAGGSLRLSCAASGGTFGRYAMGWYRQAPGKERELVAAITYGGGSTYYADSVKGRFTISRDNAKNTVYLQMNSLKPEDTAVYYCNKYASLRYWGQGTQVTVSS | high polyreactivity |
| QVQLVESGGGLVQAGGSLRLSCAASGGTFGSYTMGWYRQAPGKERELVAAISSGGGTDYADSVKGRFTISRDNAKNTVYLQMNSLIPEDTAVYYCYAKSYYAWGSVRYPQTFDYWGQGTQVTVSS | low polyreactivity |
| QVQLVESGGGLVQAGGSLRLSCAASGGTFGYNAMGWYRQAPGKERELVAAIRNCGSTYYADSVKGRFTISRDNAKNTVYLQMNSLKQEDTAVYYCAAKVYRKLNYWVQGTQVTVSS | high polyreactivity |
| QVQLVESGGGLVQAGGSLRLSCAASGGTFHSNAMGWYRQAPGKERELVAAISWSDDTTYYADSVKGRFTISRDNAKNTVYLQINSLKPDDTAVYYCATVFFVLPPSRFDSWGQGTQVTVSS | low polyreactivity |
| QVQLVESGGGLVQAGGSLRLSCAASGGTFKHYAMGWYRQAAGKERELVAAITRTGGSTYYADSVKGRYTISRDNAKNTVYLQMNSLKPEDTAVYYCAAQRPRGAYRHYDYWGQGTQVTVSS | high polyreactivity |
| QVQLVESGGGLVQAGGSLRLSCAASGGTFNANGMGWYRQAPGKERELVAAISQRAGRTYYADSVKGRFTISRDNAKNTVYLQMNSLKPEDTAVFYCAKRPTDRRFGSGYWGQGTQVTVSS | high polyreactivity |
| QVQLVESGGGLVQAGGSLRLSCAASGGTFNGNTMGWYRQAPGKERELVAVIDWSGGSTYYADSVKGRFTISRDNAKNTVYLQMNSLKPEDTAVYYCNADSDAQFREPKGLYYWGQGTQVTVSS | low polyreactivity |

From the nanobody polyreactivity screen of Harvey et al. (2022)
